Reference: the supplement of paper PMC7877785
± gives the uncertainty stated by the source.

Test: self-splicing fitness, log relative to wild type (ln ratio); higher = more splicing; Tetrahymena group I intron in knt gene, E. coli kanamycin selection, DiMSum; sequences stand for … in CUCUCU…GGAGGGAAAAGUUAUCAGGCAUGCACCUGGUAGCUAGUCUUUAAACCAAUAGAUUGCAUCGGUUUAAAAGGCAAGACCGUCAAAUUGCGGGAAAGGGGUCAACAGCCGUUCAGUACCAAGUCUCAGGGGAAACUUUGAGAUGGCCUUGCAAAGGGUAUGGUAAUAAGCUGACGGACAUGGUCCUAACCACGCAGCCAAGUCCUAAGUCAACAGAUCUUCUGUUGAUAUGGAUGCAGUUCACAGACUAAAUGUCGGUCGGGGAAGAUGUAUUCUUCUCAUAAGAUAUAGUCGGACCUCUCCUUAAUGGGAGCUAGCGGAUGAAGUGAUGCAACACUGGAGCCGCUGGGAACUAAUUUGUAUGCGAAAGUAUAUUGAUUAGUUUUGGAGUACUCGUGGUCG
How it was run: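 Fitness was computed with DiMSum as the error-weighted combination of replicate fold changes, kanamycin versus none, each normalised to wild type. The library randomised all eight intron nucleotides of the P1ex region, with the intron placed in the knt kanamycin-resistance gene on pET-22b(+) in E. coli BL21(DE3). Six replicate transformations were grown overnight at 37°C or 30°C on LB agar with or without 25 μg/mL kanamycin, plus 100 μg/mL carbenicillin, 50 μM IPTG and 0.2% rhamnose. Pooled colonies were amplicon-sequenced on an Illumina HiSeq 2500.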

| Sequence | self-splicing fitness (ln) (30 °C) | self-splicing fitness (ln) (37 °C) |
| --- | --- | --- |
| ACUAAGCAAUAUUACGGGUC | -3.49 ± 0.34 | -0.75 ± 0.23 |
| ACUAAGCAAUAUUACGUAGG | -1.4 ± 0.074 | -0.98 ± 0.1 |
| ACUAAGCAAUAUUACGUCGG | -1.99 ± 0.068 | -1.04 ± 0.087 |
| ACUAAGCAAUAUUACGUGUA | -2.6 ± 0.13 | -1.38 ± 0.12 |
| ACUAAGCAAUAUUACGUUAU | -3.49 ± 0.13 | -1.55 ± 0.11 |
| ACUAAGCAAUAUUACGUUGA | -2.67 ± 0.12 | -1.92 ± 0.13 |
| ACUCAGCAAUAUUACGAGAA | -1.51 ± 0.21 | -0.586 ± 0.2 |
| ACUCAGCAAUAUUACGAGGU | -3.47 ± 0.18 | -1.68 ± 0.17 |
| ACUCAGCAAUAUUACGCAAA | -2.02 ± 0.12 | -0.838 ± 0.11 |
| ACUCAGCAAUAUUACGCAAC | -2.14 ± 0.17 | -2.43 ± 0.26 |
| ACUCAGCAAUAUUACGCACG | -1 ± 0.078 | -0.784 ± 0.13 |
| ACUCAGCAAUAUUACGGAUG | -1.36 ± 0.068 | -0.69 ± 0.098 |
| ACUCAGCAAUAUUACGGCCG | -1.87 ± 0.13 | -0.609 ± 0.15 |
| ACUCAGCAAUAUUACGGCGU | -0.555 ± 0.059 | 0.0604 ± 0.074 |
| ACUCAGCAAUAUUACGGUAC | -2.63 ± 0.13 | -3.01 ± 0.21 |
| ACUCAGCAAUAUUACGGUCG | -3.23 ± 0.12 | -1.33 ± 0.1 |
| ACUCAGCAAUAUUACGUACG | -2.58 ± 0.14 | -0.864 ± 0.11 |
| ACUCAGCAAUAUUACGUCUA | -0.845 ± 0.081 | -0.152 ± 0.076 |
| ACUCAGCAAUAUUACGUCUG | -3.57 ± 0.14 | -2.74 ± 0.16 |
| ACUGAGCAAUAUUACGAAGA | -2.33 ± 0.22 | -1.64 ± 0.2 |
| ACUGAGCAAUAUUACGAAUA | -2.97 ± 0.28 | -2.65 ± 0.29 |
| ACUGAGCAAUAUUACGAGCU | – | -1.02 ± 0.32 |
| ACUGAGCAAUAUUACGCAAG | -2.68 ± 0.28 | -1.54 ± 0.19 |
| ACUGAGCAAUAUUACGCACC | -2 ± 0.4 | -2.15 ± 0.42 |

| Sequence | self-splicing fitness (ln) (30 °C) | self-splicing fitness (ln) (37 °C) |
| --- | --- | --- |
| ACUGAGCAAUAUUACGCCUG | -2.36 ± 0.19 | -1.48 ± 0.19 |
| ACUGAGCAAUAUUACGCCUU | -1.55 ± 0.2 | -0.418 ± 0.24 |
| ACUGAGCAAUAUUACGCGUG | -2.2 ± 0.092 | -1.05 ± 0.1 |
| ACUGAGCAAUAUUACGCUAA | -3.41 ± 0.43 | -3.71 ± 0.39 |
| ACUGAGCAAUAUUACGCUCG | -2.59 ± 0.24 | -1.59 ± 0.23 |
| ACUGAGCAAUAUUACGGACU | -1.08 ± 0.077 | -0.672 ± 0.093 |
| ACUGAGCAAUAUUACGGAGU | -2.8 ± 0.41 | -1.78 ± 0.33 |
| ACUGAGCAAUAUUACGGCCC | -1.95 ± 0.3 | -0.993 ± 0.26 |
| ACUGAGCAAUAUUACGGGCG | -2.3 ± 0.15 | -1.01 ± 0.18 |
| ACUGAGCAAUAUUACGGUCG | -3.49 ± 0.16 | -1.46 ± 0.16 |
| ACUGAGCAAUAUUACGGUGA | -2.02 ± 0.13 | -3.65 ± 0.24 |
| ACUGAGCAAUAUUACGUACA | -1.96 ± 0.24 | -0.524 ± 0.17 |
| ACUGAGCAAUAUUACGUCCU | -2.07 ± 0.11 | -0.865 ± 0.12 |
| ACUGAGCAAUAUUACGUCGC | -3.35 ± 0.26 | -2.18 ± 0.21 |
| ACUGAGCAAUAUUACGUGAC | -3.23 ± 0.2 | -2.95 ± 0.27 |
| ACUGAGCAAUAUUACGUUAG | -3.64 ± 0.2 | -0.75 ± 0.19 |
| ACUGAGCAAUAUUACGUUGC | – | -2.04 ± 0.28 |
| ACUUAGCAAUAUUACGAACC | -0.695 ± 0.21 | -0.285 ± 0.36 |
| ACUUAGCAAUAUUACGAACG | -1.16 ± 0.089 | -0.581 ± 0.1 |
| ACUUAGCAAUAUUACGAACU | -0.706 ± 0.12 | -0.193 ± 0.14 |
| ACUUAGCAAUAUUACGAAUU | -2.29 ± 0.1 | -0.888 ± 0.14 |
| ACUUAGCAAUAUUACGAGCG | -1.14 ± 0.096 | 0.122 ± 0.1 |
| ACUUAGCAAUAUUACGAUAC | -3.82 ± 0.42 | -2.28 ± 0.26 |
| ACUUAGCAAUAUUACGAUGC | -1.04 ± 0.091 | -0.644 ± 0.11 |

| Sequence | self-splicing fitness (ln) (30 °C) | self-splicing fitness (ln) (37 °C) |
| --- | --- | --- |
| ACUUAGCAAUAUUACGAUGU | -1.78 ± 0.08 | -1.36 ± 0.11 |
| ACUUAGCAAUAUUACGAUUC | -2.3 ± 0.098 | -0.823 ± 0.1 |
| ACUUAGCAAUAUUACGCAAC | -2.89 ± 0.19 | -1.72 ± 0.17 |
| ACUUAGCAAUAUUACGCGGG | -3.38 ± 0.27 | -2.75 ± 0.2 |
| ACUUAGCAAUAUUACGCUCC | -1.44 ± 0.22 | 0.041 ± 0.19 |
| ACUUAGCAAUAUUACGCUUG | -1.7 ± 0.094 | -0.865 ± 0.12 |
| ACUUAGCAAUAUUACGGAUU | -1.18 ± 0.12 | -0.862 ± 0.14 |
| ACUUAGCAAUAUUACGGCAG | -1.6 ± 0.092 | -0.759 ± 0.12 |
| ACUUAGCAAUAUUACGGCGG | -1.06 ± 0.087 | -0.78 ± 0.096 |
| ACUUAGCAAUAUUACGGGAA | -1.99 ± 0.2 | -1.65 ± 0.16 |
| ACUUAGCAAUAUUACGGGCC | -2.42 ± 0.28 | -2.35 ± 0.42 |
| ACUUAGCAAUAUUACGGGCU | -1.74 ± 0.084 | -0.866 ± 0.11 |
| ACUUAGCAAUAUUACGUCAC | -3.8 ± 0.22 | -1.91 ± 0.2 |
| ACUUAGCAAUAUUACGUCCC | -0.637 ± 0.21 | -0.072 ± 0.25 |
| ACUUAGCAAUAUUACGUGAC | -2.05 ± 0.21 | -2.54 ± 0.29 |
| ACUUAGCAAUAUUACGUGCU | -1.9 ± 0.094 | -1.06 ± 0.1 |
| ACUUAGCAAUAUUACGUGUU | -3.22 ± 0.16 | -1.5 ± 0.12 |
| ACUUAGCAAUAUUACGUUUG | -3.01 ± 0.12 | -2.09 ± 0.16 |
| AGAAAGCAAUAUUACGACCC | 0.302 ± 0.21 | -0.444 ± 0.27 |
| AGAAAGCAAUAUUACGACCG | -0.595 ± 0.15 | 0.0491 ± 0.17 |
| AGAAAGCAAUAUUACGAUAU | -1.07 ± 0.096 | -0.792 ± 0.11 |
| AGAAAGCAAUAUUACGCAAA | -3.28 ± 0.26 | -0.836 ± 0.13 |
| AGAAAGCAAUAUUACGCAUC | -2.53 ± 0.34 | – |
| AGAAAGCAAUAUUACGCCUU | -1.29 ± 0.12 | -1.69 ± 0.14 |

| Sequence | self-splicing fitness (ln) (30 °C) | self-splicing fitness (ln) (37 °C) |
| --- | --- | --- |
| AGAAAGCAAUAUUACGCUAA | -2.38 ± 0.34 | -1.11 ± 0.4 |
| AGAAAGCAAUAUUACGCUUG | -2.37 ± 0.15 | -1.73 ± 0.18 |
| AGAAAGCAAUAUUACGGACC | -0.299 ± 0.3 | 0.21 ± 0.3 |
| AGAAAGCAAUAUUACGGAUA | -2.15 ± 0.15 | -1.77 ± 0.15 |
| AGAAAGCAAUAUUACGGAUC | -1.53 ± 0.13 | -0.656 ± 0.17 |
| AGAAAGCAAUAUUACGGAUG | -2.93 ± 0.14 | -2.04 ± 0.14 |
| AGAAAGCAAUAUUACGGCAC | -0.435 ± 0.087 | -0.727 ± 0.13 |
| AGAAAGCAAUAUUACGGCUU | -1.26 ± 0.072 | -0.7 ± 0.089 |
| AGAAAGCAAUAUUACGGUUC | -2.72 ± 0.12 | -1.83 ± 0.13 |
| AGAAAGCAAUAUUACGGUUG | -3.65 ± 0.17 | -1.78 ± 0.16 |
| AGAAAGCAAUAUUACGGUUU | -0.927 ± 0.068 | -0.0576 ± 0.082 |
| AGAAAGCAAUAUUACGUAAC | -3.26 ± 0.22 | -2.47 ± 0.33 |
| AGAAAGCAAUAUUACGUGCA | -0.717 ± 0.079 | -0.292 ± 0.099 |
| AGAAAGCAAUAUUACGUUAG | -2.91 ± 0.19 | -2.69 ± 0.18 |
| AGACAGCAAUAUUACGAAAG | -2.18 ± 0.17 | -2.48 ± 0.21 |
| AGACAGCAAUAUUACGAACG | -1.29 ± 0.1 | -0.106 ± 0.12 |
| AGACAGCAAUAUUACGAGAU | -2.88 ± 0.1 | -2.85 ± 0.18 |
| AGACAGCAAUAUUACGAGCG | -0.874 ± 0.071 | -0.405 ± 0.081 |
| AGACAGCAAUAUUACGAGUU | -2.26 ± 0.086 | -1.14 ± 0.099 |
| AGACAGCAAUAUUACGAUAA | -2.68 ± 0.16 | -0.931 ± 0.15 |
| AGACAGCAAUAUUACGAUAU | -1.93 ± 0.064 | -0.802 ± 0.07 |
| AGACAGCAAUAUUACGAUCA | -0.682 ± 0.074 | 0.267 ± 0.089 |
| AGACAGCAAUAUUACGAUUU | 0.0877 ± 0.068 | 0.119 ± 0.086 |
| AGACAGCAAUAUUACGCAAC | -3.42 ± 0.22 | -1.2 ± 0.14 |
